# Test results from PMC4872126, “Mechanistic insight into cadmium-induced inactivation of the Bloom protein”.
# Columns and labels:
# BLM642-1290 [1] = molecular target: T1, BLM642-1290 (human, UniProt P54132 642-1290); assay: fluorescence anisotropy; 0.5 mM NEM, 2 mM DTT, no Cd2+; 50 mM Tris-HCl pH 8.0, 50 mM NaCl, 1 mM DTT, 25 C; 200 nM protein, 5 nM 3'-fluorescein DNA; settings: protein: recombinant; label: 3'-fluorescein
# RecQ E. coli = RecQ E. coli (Escherichia coli, UniProt P15043 1-609); assay: fluorescence anisotropy; IC50 of CdCl2 inhibiting binding (not protein affinity); 200 nM protein, 5 nM DNA; 50 mM Tris-HCl pH 8.0, 50 mM NaCl, 1 mM DTT, 25 C; 200 nM protein, 5 nM 3'-fluorescein DNA; settings: protein: recombinant; label: 3'-fluorescein
# BLM642-1290 [2] = molecular target: T1, BLM642-1290; assay: as above; settings: protein: recombinant; label: 3'-fluorescein
# BLM full-length = BLM full-length (human, UniProt P54132 1-1417); assay: as above; settings: protein: recombinant; (Ni-NTA purified); label: 3'-fluorescein
# Chain of BLM full-length (P54132 whole entry): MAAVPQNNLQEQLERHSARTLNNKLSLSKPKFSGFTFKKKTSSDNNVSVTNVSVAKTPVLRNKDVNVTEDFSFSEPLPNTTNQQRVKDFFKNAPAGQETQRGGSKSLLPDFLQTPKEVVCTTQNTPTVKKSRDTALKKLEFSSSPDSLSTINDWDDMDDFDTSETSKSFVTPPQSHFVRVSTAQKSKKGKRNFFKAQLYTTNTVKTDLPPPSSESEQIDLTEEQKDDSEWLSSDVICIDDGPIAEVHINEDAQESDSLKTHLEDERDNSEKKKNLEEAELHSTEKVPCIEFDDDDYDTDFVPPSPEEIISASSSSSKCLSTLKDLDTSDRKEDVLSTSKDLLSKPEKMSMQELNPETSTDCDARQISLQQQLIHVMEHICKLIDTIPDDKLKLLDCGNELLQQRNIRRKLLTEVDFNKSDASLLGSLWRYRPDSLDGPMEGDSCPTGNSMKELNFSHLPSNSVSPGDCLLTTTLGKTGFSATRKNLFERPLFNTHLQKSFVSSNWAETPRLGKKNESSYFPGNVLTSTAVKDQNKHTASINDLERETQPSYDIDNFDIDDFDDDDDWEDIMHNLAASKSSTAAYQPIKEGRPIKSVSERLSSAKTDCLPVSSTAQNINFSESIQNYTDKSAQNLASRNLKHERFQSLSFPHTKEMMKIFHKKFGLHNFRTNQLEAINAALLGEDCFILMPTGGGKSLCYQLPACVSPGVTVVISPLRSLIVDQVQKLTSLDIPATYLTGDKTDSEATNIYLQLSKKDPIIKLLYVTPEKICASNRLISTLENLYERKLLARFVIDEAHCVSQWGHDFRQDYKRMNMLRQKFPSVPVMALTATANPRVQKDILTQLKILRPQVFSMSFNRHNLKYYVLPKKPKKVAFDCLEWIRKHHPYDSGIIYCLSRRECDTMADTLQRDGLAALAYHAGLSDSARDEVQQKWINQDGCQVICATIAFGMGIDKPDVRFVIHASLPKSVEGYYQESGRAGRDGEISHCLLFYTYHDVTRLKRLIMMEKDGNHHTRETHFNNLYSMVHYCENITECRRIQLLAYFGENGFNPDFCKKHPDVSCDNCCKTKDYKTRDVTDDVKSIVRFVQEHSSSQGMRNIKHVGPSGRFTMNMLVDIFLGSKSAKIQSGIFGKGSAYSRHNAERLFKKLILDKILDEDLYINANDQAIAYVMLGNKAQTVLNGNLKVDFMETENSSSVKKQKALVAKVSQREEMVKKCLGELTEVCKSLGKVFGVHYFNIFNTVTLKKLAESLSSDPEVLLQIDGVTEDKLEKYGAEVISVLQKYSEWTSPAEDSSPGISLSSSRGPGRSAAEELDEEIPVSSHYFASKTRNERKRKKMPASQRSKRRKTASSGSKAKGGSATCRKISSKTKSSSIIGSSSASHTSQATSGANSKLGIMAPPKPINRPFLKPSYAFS
# T1 sequence (P54132 642-1290): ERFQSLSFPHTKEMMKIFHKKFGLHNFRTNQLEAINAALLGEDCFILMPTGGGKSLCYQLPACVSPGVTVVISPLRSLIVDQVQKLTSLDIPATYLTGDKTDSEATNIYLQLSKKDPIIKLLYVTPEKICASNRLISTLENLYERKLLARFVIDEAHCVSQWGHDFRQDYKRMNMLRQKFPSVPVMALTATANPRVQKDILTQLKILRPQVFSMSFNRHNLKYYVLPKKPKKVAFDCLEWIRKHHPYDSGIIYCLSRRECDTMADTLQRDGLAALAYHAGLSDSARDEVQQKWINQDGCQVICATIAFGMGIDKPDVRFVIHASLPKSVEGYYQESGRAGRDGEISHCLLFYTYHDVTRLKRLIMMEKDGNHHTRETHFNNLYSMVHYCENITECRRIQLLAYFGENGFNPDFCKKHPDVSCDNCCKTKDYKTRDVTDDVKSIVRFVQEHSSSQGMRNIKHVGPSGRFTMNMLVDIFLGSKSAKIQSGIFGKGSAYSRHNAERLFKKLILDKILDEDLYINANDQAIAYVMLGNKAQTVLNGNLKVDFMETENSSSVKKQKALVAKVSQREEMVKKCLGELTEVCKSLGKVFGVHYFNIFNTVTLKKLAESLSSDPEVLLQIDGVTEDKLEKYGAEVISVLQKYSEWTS
# Chain of RecQ E. coli (P15043 whole entry): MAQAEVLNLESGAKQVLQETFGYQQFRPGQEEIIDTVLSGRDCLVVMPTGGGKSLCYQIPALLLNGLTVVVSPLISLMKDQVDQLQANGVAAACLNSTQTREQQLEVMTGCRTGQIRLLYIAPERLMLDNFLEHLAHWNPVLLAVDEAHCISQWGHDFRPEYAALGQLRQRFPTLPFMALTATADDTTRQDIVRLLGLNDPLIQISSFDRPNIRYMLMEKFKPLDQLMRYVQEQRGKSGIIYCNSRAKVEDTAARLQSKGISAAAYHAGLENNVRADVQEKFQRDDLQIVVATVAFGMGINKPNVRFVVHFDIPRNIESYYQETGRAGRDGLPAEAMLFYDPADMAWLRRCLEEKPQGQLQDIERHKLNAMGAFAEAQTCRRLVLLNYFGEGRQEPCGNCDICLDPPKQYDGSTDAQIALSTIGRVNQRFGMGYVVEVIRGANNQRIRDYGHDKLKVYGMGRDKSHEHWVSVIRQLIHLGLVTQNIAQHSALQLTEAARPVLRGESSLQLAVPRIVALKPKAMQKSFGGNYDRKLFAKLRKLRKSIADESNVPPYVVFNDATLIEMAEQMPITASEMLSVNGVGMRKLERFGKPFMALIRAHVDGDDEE
Binder,binding result (BLM642-1290 [1]),IC50 (RecQ E. coli) [µM],IC50 (BLM642-1290 [2]) [µM],IC50 (BLM full-length) [µM]
GCCTCGCTGCCGTCGCCA (ssDNA) [F-18],binds,–,–,–
GCCCTGCTGCCGACCAACGATGGTTACATTCCCGCTGCTG (ssDNA) [F-40],–,39.2,9.98,6.64
GCCCTGCTGCCGACCAACGAAGGT (ssDNA) [F-24 ss],–,40.2,10.2,6.63
